Data taken from PMC10609148 (Molecules, 2023).

How the values were obtained:
Conditions in all cases: both partners purified
[1] = molecular target: T1, Human Aβ(1–42)-HiLyte^TM-Fluor555 (human, UniProt P05067 672-713, HiLyte^TM-Fluor555 dye covalently bound to ASP1 (NH2-terminus amino acid)); assay: other fluorescence titration; His6 added to 10 nM Aβ(1–42) HiLyte-Fluor555 in solution; increase in dye fluorescence (ex 520 nm, em 567 nm) at the end of the kinetics (2000 s); 50 mM HEPES, 100 mM KCl, 50 µM CaCl2, pH 7.05, 24–25 °C
T1 construct: Amyloid β peptide Aβ(1–42), human, cut product of the amyloid precursor protein; numbers count on: the Aβ peptide; source: bought: AnaSpec

[2] = molecular target: T1, Human Aβ(1–42)-HiLyte^TM-Fluor555; assay: other fluorescence titration; competition: 10 nM Aβ(1–42) HiLyte-Fluor555 preincubated 15 min with rising His6, then 5 nM CaM added; attenuation of the maximum fluorescence increase; 50 mM HEPES, 100 mM KCl, 50 µM CaCl2, pH 7.05, 24–25 °C
[3] = molecular target: T1, Human Aβ(1–42)-HiLyte^TM-Fluor555; assay: other fluorescence titration; competition: 10 nM Aβ(1–42) HiLyte-Fluor555 preincubated 15 min with rising His6, then 5 nM calbindin-D28k added; attenuation of the maximum fluorescence increase; 50 mM HEPES, 100 mM KCl, 50 µM CaCl2, pH 7.05, 24–25 °C

B1: hexa-histidine peptide (His6) (peptide)
peptide: HHHHHH
notes: hexa-histidine; source: bought: Quimigen
Binder B1 has an EC50 [1] of 50 to 60 nM, an IC50 [2] of ~1000 nM and an IC50 [3] of ~100 nM.
